# Results: patent publication US20200017592A1 (Regeneron, published 2020)
# T1: full-length human IL-36R on cells (human, UniProt Q9HB29 20-575)
# T1 sequence (looked up): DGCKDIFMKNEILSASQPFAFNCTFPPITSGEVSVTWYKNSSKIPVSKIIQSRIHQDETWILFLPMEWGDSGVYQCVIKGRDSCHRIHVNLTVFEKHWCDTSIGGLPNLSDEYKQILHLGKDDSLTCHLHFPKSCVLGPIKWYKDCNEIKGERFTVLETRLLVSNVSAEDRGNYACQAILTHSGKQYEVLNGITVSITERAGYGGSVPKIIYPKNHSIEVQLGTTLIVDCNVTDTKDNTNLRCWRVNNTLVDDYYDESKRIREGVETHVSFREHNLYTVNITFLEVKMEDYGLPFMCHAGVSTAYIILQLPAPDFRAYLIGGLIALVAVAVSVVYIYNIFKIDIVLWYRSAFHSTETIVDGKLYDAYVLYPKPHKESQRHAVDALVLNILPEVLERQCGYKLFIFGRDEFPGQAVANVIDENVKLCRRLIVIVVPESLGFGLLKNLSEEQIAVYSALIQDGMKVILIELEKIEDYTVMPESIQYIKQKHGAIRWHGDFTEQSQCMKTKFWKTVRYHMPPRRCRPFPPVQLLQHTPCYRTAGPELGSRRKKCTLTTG
# T2: Macaca fascicularis IL-36R on cells (Macaca fascicularis, UniProt A0A2K5WSK9 20-558)
# T2 sequence: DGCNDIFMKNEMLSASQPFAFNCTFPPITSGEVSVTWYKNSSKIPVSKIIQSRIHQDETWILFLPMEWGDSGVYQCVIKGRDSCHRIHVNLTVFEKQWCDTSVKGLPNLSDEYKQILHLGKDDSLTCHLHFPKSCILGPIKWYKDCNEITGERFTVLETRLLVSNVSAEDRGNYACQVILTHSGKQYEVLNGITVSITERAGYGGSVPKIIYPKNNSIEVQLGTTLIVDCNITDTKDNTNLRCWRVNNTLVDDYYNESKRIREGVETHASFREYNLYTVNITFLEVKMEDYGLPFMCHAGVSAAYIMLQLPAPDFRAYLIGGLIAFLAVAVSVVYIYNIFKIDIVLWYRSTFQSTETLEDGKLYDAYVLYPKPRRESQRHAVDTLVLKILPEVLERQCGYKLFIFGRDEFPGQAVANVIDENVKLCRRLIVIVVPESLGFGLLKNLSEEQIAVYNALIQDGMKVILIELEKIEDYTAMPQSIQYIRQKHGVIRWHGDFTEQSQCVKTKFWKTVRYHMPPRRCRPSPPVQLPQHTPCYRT
# Experiments:
# [1] = biological target: T3, recombinant human IL-36R extracellular domain expressed with a C-terminal myc-myc-hexahistidine tag (human, UniProt Q9HB29 20-337); test: SPR (Biacore 4000), mAb captured on anti-human Fc, 37°C
# T3 construct: also called hIL-36R-MMH; hIL-36R.mmH
# Procedure: (§1) Equilibrium dissociation constants (KD values) for IL-36R binding to purified anti-IL-36R antibodies were determined using a real-time surface plasmon resonance biosensor using a Biacore 4000 instrument. The Biacore sensor surface was first derivatized by amine coupling with a monoclonal mouse anti-human Fc antibody (GE, # BR-1008-39) to capture anti-IL-36R monoclonal antibodies. All binding studies were performed in 0.01 M Hepes pH 7.4, 0.15 M NaCl, 3 mM EDTA, and 0.05% v/v Surfactant Tween-20 (HBS-ET running buffer) at 25° C. and 37° C. Different concentrations of IL-36R reagents, human IL-36R extracellular domain expressed with a C-terminal myc-myc-hexahistidine tag (hIL-36R-MMH), Macaca fascicularis IL-36R extracellular domain expressed with a C-terminal myc-myc-hexahistidine tag (mfIL-36R-MMH: mROR1 signal sequence (M1-A29). Macaca fascicularis IL36R_ecto domain (D20-A336).mycmycHis6), human IL-36R extracellular domain expressed with a C-terminal mouse IgG2a Fc tag (hIL-36R-mFc: mROR1 signal sequence (M1-A29)-human IL36R (D20-Y337)-mouse IgG2aFc (E98-K330)) or an in-line fusion protein of human IL-36R extracellular domain and IL1RAcP extracellular domain expressed with mouse IgG2a Fc tag (hIL-36R-Trap-mFc: mROR1 signal sequence (M1-A29)-human IL36R ecto domain (D20-Y337)-human IL1RacP ecto domain(S21-E359)-mouse IgG2aFc) in HBS-ET running buffer (ranging from 100 nM to 3.7 nM, 3-fold dilutions) were injected over the anti-IL-36R antibody captured surface for 4 minutes at a flow rate of 30 μL/minute and their dissociation in HBS-ET running buffer was monitored for 10 minutes. Kinetic association rate constant (kₐ) and dissociation rate constant (kd) were determined by fitting the real-time sensorgrams to a 1:1 binding model using Scrubber 2.0c curve fitting software. Binding dissociation equilibrium constants (KD) and dissociative half-lives (t_{1/2}) were calculated from the kinetic rate constants as: […]
# [2] = biological target: T1, full-length human IL-36R on cells; test: cell-based or functional assay
# [3] = biological target: T3, recombinant human IL-36R extracellular …; test: SPR (Biacore 4000), mAb captured on anti-human Fc, 25°C
# Procedure: as §1
# [4] = biological target: T2, Macaca fascicularis IL-36R on cells; test: cell-based or functional assay
binder,measurement,setting,value
"H4H14700P2 (antibody, human IgG4 S228P, kappa, V domains shown) VH: EVQLVESGGGLVQPGRSLRLSCAASGFTFDDYAMHWVRQTPGKGLEWVSVISWNSDVIAYSDSVKGRFTISRDNAKNSLYLQMNSLGTEDTALYYCAKGHNWNFFDYWGQGTLVTVSS VL: EIVLTQSPATLSLSPGERATLSCRASQSVSSYLAWYQQKPGQAPRLLIYNVANRATDIPARFSGSGSGTDFTLTISGLEPEDFAVYFCQQRSNWPLTFGGGTKVEIKR",100 nM hIL-36R-MMH Bound (RU),[1],89 RU
same,Kd,[1],10.5 nM
same,koff,[1],0.00184 s⁻¹
same,kon,[1],176000 M⁻¹ s⁻¹
same,t½,[1],6 min
same,"IC50 [M], NFκB-luciferase, 10 pM hIL-36γ",[2],1.2e-10 M
same,"IC50 [M], NFκB-luciferase, 15 pM hIL-36β",[2],2e-10 M
same,"IC50 [M], NFκB-luciferase, 20 pM hIL-36α",[2],1.9e-10 M
same,"Max Inhibition (%), NFκB-luciferase, 10 pM hIL-36γ",[2],100%
same,"Max Inhibition (%), NFκB-luciferase, 15 pM hIL-36β",[2],100%
same,"Max Inhibition (%), NFκB-luciferase, 20 pM hIL-36α",[2],101%
same,100 nM hIL-36R-MMH Bound (RU),[3],67 RU
same,Kd,[3],4.82 nM
same,koff,[3],0.000579 s⁻¹
same,kon,[3],120000 M⁻¹ s⁻¹
same,t½,[3],20 min
same,"IC50 [M], NFκB-luciferase, 300 pM hIL-36γ",[4],1.8e-10 M
same,"IC50 [M], NFκB-luciferase, 500 pM hIL-36α",[4],1.2e-10 M
same,"IC50 [M], NFκB-luciferase, 600 pM hIL-36β",[4],1.8e-10 M
same,"Max Inhibition (%), NFκB-luciferase, 300 pM hIL-36γ",[4],99%
same,"Max Inhibition (%), NFκB-luciferase, 500 pM hIL-36α",[4],99%
same,"Max Inhibition (%), NFκB-luciferase, 600 pM hIL-36β",[4],99%
"H4H14728P (antibody, human IgG4 S228P, kappa, V domains shown) VH: QVQLQESGPGLVKPSQTLSLTCTVSGGSISSADYYWSWIRQHPGKGLEWIGSIYYTGSTYYNPSLKSRLTISIDTSENQFSLKLTSLTAADTAVYYCASEEANWGSHFDSWGQGTLVTVSS VL: DIQMTQSPSSLSASVGDRVTITCRASQSIDNFLNWYQQKPGKAPKLLIYAASSLQSGVPSRFSGSGSGTDFTLTISSLQPEDFASYYCQHSHSAHPITFGQGTRLEIKR",100 nM hIL-36R-MMH Bound (RU),[1],93 RU
same,Kd,[1],21.5 nM
same,koff,[1],0.00293 s⁻¹
same,kon,[1],136000 M⁻¹ s⁻¹
same,t½,[1],4 min
same,"IC50 [M], NFκB-luciferase, 10 pM hIL-36γ",[2],1.2e-09 M
same,"IC50 [M], NFκB-luciferase, 15 pM hIL-36β",[2],1.3e-09 M
same,"IC50 [M], NFκB-luciferase, 20 pM hIL-36α",[2],9.7e-10 M
same,"Max Inhibition (%), NFκB-luciferase, 10 pM hIL-36γ",[2],99%
same,"Max Inhibition (%), NFκB-luciferase, 15 pM hIL-36β",[2],99%
same,"Max Inhibition (%), NFκB-luciferase, 20 pM hIL-36α",[2],97%
same,100 nM hIL-36R-MMH Bound (RU),[3],69 RU
same,Kd,[3],7.87 nM
same,koff,[3],0.000773 s⁻¹
same,kon,[3],98300 M⁻¹ s⁻¹
same,t½,[3],15 min
same,"IC50 [M], NFκB-luciferase, 300 pM hIL-36γ",[4],2e-09 M
same,"IC50 [M], NFκB-luciferase, 500 pM hIL-36α",[4],1.3e-09 M
same,"IC50 [M], NFκB-luciferase, 600 pM hIL-36β",[4],1.5e-09 M
same,"Max Inhibition (%), NFκB-luciferase, 300 pM hIL-36γ",[4],93%
same,"Max Inhibition (%), NFκB-luciferase, 500 pM hIL-36α",[4],93%
same,"Max Inhibition (%), NFκB-luciferase, 600 pM hIL-36β",[4],95%
"H4H14734P2 (antibody, human IgG4 S228P, kappa, V domains shown) VH: EVQLVESGGGLVKPGGSLRLSCAASGFIFSNAWMNWVRQAPGKGLAWVGRIKTETDGGTTDYAAPVKGRFTISRDDSKNTLYLQMNSVKTEDTAVYYCTGGYSYGDDSSSWNEGYYYYGMDVWGQGTTVTVSS VL: not shown",100 nM hIL-36R-MMH Bound (RU),[1],25 RU
same,Kd,[1],13.9 nM
same,koff,[1],0.000749 s⁻¹
same,kon,[1],53900 M⁻¹ s⁻¹
same,t½,[1],15 min
same,100 nM hIL-36R-MMH Bound (RU),[3],22 RU
same,Kd,[3],12.2 nM
same,koff,[3],0.000404 s⁻¹
same,kon,[3],33200 M⁻¹ s⁻¹
same,t½,[3],29 min
